Results: patent US20070286858A1

Target: murine RAGE-Fc (mouse) (UniProt Q62151)
Assay: method not given

Chain of murine RAGE-Fc (mouse) (Q62151 other isoform, or with tags, fused parts or gaps, form in doubt): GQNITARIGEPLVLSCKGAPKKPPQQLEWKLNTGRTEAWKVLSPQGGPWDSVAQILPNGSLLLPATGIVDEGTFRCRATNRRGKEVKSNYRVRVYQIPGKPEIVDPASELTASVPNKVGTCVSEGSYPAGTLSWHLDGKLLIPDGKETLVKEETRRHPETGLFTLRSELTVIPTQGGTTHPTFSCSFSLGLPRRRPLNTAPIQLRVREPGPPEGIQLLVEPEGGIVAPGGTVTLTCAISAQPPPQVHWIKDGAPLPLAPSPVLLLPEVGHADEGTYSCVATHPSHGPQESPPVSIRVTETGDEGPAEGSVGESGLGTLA

- Kd: 0.3 nM
B1: XT-M4 (antibody, rat IgG2b, V domains shown)
VH: EVQLVESGGGLVQPGRSLKLSCVVSGFTFNNYWMTWIRQTPGKGLEWVASINNSGDNTYYPDSVKDRFTISRDNAKSTLYLQMNSLRSEDTATYYCTRGGDITTGFDYWGQGVMVTVSS
VL: DIQMTQSPSSMSVSLGDTITITCRASQDVGIYVNWFQQKPGKSPRRMIYRATNLADGVPSRFSGSRSGSIYSLTISSLESEDVADYHCLEFDEHPLTFGSGTKVEIK
